Results on 2 molecules are retold here after article PMC4601640 (2015).

The Kd is the constant that tells how readily two partners part at equilibrium.

Test [1] deals with T1, CK2-phosphorylated human full-length p50^Cdc37 (human, UniProt Q16543 1-378, phosphoserine at 13 (shown by Western blot)).
T1 chain: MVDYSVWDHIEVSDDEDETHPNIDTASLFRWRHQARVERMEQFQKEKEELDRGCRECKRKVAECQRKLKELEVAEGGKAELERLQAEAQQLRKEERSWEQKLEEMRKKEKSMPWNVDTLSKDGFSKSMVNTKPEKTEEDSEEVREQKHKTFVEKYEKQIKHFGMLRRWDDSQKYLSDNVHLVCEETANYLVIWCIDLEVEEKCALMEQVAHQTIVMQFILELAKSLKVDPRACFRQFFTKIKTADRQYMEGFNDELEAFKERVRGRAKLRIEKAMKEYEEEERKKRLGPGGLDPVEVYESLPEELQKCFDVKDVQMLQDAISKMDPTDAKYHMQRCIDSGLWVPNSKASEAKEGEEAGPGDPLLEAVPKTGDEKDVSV
The test can be described thus: ITC; phosphorylated Cdc37. A general note: In ITC the heat of successive injections is recorded.

Test [2] concerns the target T1, CK2-phosphorylated human full-length …. Description: ITC; both phosphorylated.

B1: human full-length Hsp90β (natural protein)
chain: not shown
Turning to B1, in test [1], the Kd amounted to 1400 nM.

B2: CK2-phosphorylated human full-length Hsp90β (natural protein)
chain: not shown
modifications: phosphoserine at 255 (shown by Western blot); Ser226 named as a CK2 site, its phosphorylation could not be verified
Turning to B2, the equilibrium dissociation constant (Kd) in test [2] was found to be 1900 nM.
